Laboratory results taken from publication doi:10.1101/2025.03.12.642685.
Values joined by “and” are separate entries in the source; they are usually repeats but may differ in a detail not shown here. Identical values can stand only once.

Tests used:
[1] = target: PorK (P. gingivalis (endogenous in P. gingivalis W50 EK18)); experiment: cryo-EM structure
[2] = target: PorN (P. gingivalis (endogenous in P. gingivalis W50 EK18)); experiment: cryo-EM structure

Substance	stoichiometry N [1]	stoichiometry N [2]
PorK (natural protein)	31 to 35 (2×) and 33	
PorN (natural protein)		31 to 35 (2×) and 33
